Measured values reported in patent publication US10006080B2, “High-selectivity contact activation inhibitor based on infestin-4” (OBSCHESTVO S OGRANICHENNOY OTVETSTVENNOSTYU …, priority 2013, dated 2018).
Where a chain is given by its changes, count along the chain named. Each block holds one molecule with its values, some of them ahead of it. No end group written: not given here.

Legend:
[1] = target: T1, fXIa (Homo sapiens, UniProt P03951); assay: Chromogenic test of protease inhibition in buffer, fXIa (substrate S-2366); format: biochemical; details: buffer solution, summary of Table 2
T1 construct: factor XI into its active form, factor XIa (fXIa)
Procedure: In order to assess selectivity of the fXIIa inhibition by the polypeptide comprising the sequence of the infestin-4 mutant MutB, its inhibitory activity in buffer solution against the purified coagulation factors was determined. The polypeptide's activity was compared with the known fXIIa inhibitors: CTI, infestin-4, infestin-4-based mutant Mut15, LCTI-III. […] The standard deviation amounted to about 50% of the average value; each value was measured by performing 2-3 repeats.
(§1) To determine the inhibition activity of such proteins as MutB, CTI, Inf4, Mut15, and LCTI-III as related to different coagulation proteases in a buffer, the chromogenic test was used: the mixture of protease and inhibitor was incubated in the wells of the plate for 15 minutes at 37° C., after which the chromogenic substrate solution was added to the mixture, and the protease activity was measured as the rate of chromogenic product formation at 37° C.
(§2) Chromogenic substrates included a p-nitroanilide group cleaved by the corresponding proteases. After cleavage of the p-nitroanilide group from the substrate molecule, the group absorption spectrum changes, and the change of concentration of such product within time can be detected at the light wavelength of 405 nm using a plate spectrophotometer. To build a dependence curve of the protease activity from the inhibitor concentration, different inhibitor concentrations were added into several samples with the same protease concentration. After that, the inhibitor concentration able to decrease the protease activity by 50% (IC50) was determined. The inhibition constant Ki was calculated using the Cheng-Prusoff equation (Ki=IC50/(1+S/KM)), where S is the initial substrate concentration, KM is the Michaelis-Menten constant of the substrate to the protease.
Native infestin-4 and its mutants MutB and Mut15 used here were fusion proteins with thioredoxin I E. coli containing polyhisticline clusters. […]

[2] = test system: contact-activated coagulation; assay: APTT test in platelet free plasma of a healthy donor (kaolin-cephalin activation); format: biochemical, human; details: 10 μM inhibitor in PFP; 45 sec without inhibitor
Procedure: The assessment of activity of the polypeptide comprising the sequence of an infestin-4 mutant MutB by its inhibition of the contact-activated coagulation shall be considered further with a reference to FIG. 1. Native infestin-4 and mutants MutB and Mut15 were added into 3 separate samples of platelet free plasma (PFP) of a healthy donor, with subsequent measuring time of contact-activated clotting in the APTT test.
Blood plasma from healthy donors was processed according to standard protocols of blood collection for coagulation assays (Collection, Transport, and Processing of Blood Specimens for Testing Plasma-Based Coagulation Assays and Molecular Hemostasis Assays; Approved Guideline Fifth Edition by Clinical and Laboratory Standards Institute (CLSI) H21-A5 Vol. 28 No. 5). 0.38% sodium citrate was added into blood to block the calcium ions.
The APTT test was administered using the reagent kits “Coagulo-test” (Scientific-production association Renam, Moscow, Russia) and different concentrations of the following contact activation inhibitors: native infestin-4, MutB, and Mut15. To do that, 50 microliters of blood plasma from a healthy donor were mixed with 5.6 microliters of a 10× solution of different inhibitor concentrations and incubated for 15 minutes at 37° C. Then, according to the “Coagulo-test” manual, 25 microliters of the mixture were transferred into the cuvette of the coagulometer Helena-C2, with addition of 25 microliters of kaolin-cephalin mixture activating fXII in blood plasma. After incubation at 37° C. for 3 minutes, 25 microliters of the calcium chloride solution in the initial concentration of 25 mM was added, and the time of fibrin clot formation in the coagulometer cuvette was determined photometrically.
APTT dependences on concentrations of native infestin-4, MutB and Mut15 obtained in the same way as in Example 1, are shown on FIG. 1.

[3] = target: fXa (Homo sapiens, UniProt P00742); details: Campos et al. 2004, FEBS Lett. 577:512-516; read-out: inhibition constant Ki against fXa; cited from earlier work
[4] = test system: fXIIa; details: without affecting hemostasis parameters; cited from earlier work
[5] = target: T2, factor XIIa (UniProt P00748 20-615, limits assumed); assay: chromogenic test (S-2302), IC50 converted by Cheng-Prusoff
T2 construct: also called fXIIa
T2 sequence (looked up): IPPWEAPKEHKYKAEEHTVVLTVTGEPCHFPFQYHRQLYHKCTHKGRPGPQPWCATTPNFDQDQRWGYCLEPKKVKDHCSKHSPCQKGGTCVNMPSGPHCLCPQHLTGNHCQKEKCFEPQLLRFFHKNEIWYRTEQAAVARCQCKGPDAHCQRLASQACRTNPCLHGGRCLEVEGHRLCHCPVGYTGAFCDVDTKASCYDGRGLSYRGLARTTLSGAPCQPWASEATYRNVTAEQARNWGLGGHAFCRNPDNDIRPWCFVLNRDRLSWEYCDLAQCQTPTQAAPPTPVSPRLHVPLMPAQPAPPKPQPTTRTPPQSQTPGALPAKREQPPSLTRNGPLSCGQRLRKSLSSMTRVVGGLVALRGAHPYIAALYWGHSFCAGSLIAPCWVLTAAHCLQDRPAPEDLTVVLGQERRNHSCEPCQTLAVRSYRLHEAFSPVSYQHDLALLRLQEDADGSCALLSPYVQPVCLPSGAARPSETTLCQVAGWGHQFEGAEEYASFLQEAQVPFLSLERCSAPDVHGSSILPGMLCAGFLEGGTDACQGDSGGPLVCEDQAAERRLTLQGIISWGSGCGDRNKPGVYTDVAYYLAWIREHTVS
Procedure: as §1, §2

[6] = target: T3, factor XIa (UniProt P03951 19-625); assay: chromogenic test (S-2366), IC50 converted by Cheng-Prusoff
T3 construct: also called fXIa
Procedure: as §1, §2

[7] = target: T4, fXa (UniProt P00742 41-179; P00742 235-488, limits assumed); assay: chromogenic test (S-2765), IC50 converted by Cheng-Prusoff
T4 construct: also called factor Xa
Procedure: as §1, §2

T4 sequence (P00742 41-179 limits assumed, form in doubt, chain 1 of 2): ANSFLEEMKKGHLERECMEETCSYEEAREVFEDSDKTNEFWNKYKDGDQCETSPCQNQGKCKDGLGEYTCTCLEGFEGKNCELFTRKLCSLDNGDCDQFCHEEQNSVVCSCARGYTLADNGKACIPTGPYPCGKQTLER
T4 sequence (P00742 235-488 limits assumed, form in doubt, chain 2 of 2): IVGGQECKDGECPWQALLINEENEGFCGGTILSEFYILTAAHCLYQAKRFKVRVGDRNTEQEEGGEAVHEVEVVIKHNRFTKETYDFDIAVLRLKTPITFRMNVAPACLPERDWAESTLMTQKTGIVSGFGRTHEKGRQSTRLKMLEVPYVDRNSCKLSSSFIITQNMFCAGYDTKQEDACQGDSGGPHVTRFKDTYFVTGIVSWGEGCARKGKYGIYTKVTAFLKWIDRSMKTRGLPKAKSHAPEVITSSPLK
Sequence of fXa (Homo sapiens, UniProt P00742) (P00742 235-488 limits assumed): as the sequence (P00742 235-488 limits assumed, form in doubt, chain 2 of 2) above
Sequence of fXa (Homo sapiens, UniProt P00742) (P00742 41-179 partner limits assumed): as the sequence (P00742 41-179 limits assumed, form in doubt, chain 1 of 2) above

- inhibition of fXIa (in words) [1]: do not inhibit
Molecule: Inf4: domain 4 of the protein infestin from the midgut of Triatoma infestans, Kazal-type fXIIa inhibitor; PDB 2ERW (EVRNPCACFRNYVPVCGSDGKTYGNPCMLNCAAQTKVPGLKLVHEGRCQRSNVEQF; left off: large carriers; small tags and cut ends) [reference compound]
- APTT [2]: 120 s
- Ki [3]: 53 nM
- effect in the thrombosis model in vivo [4]: prevents vascular occlusion

- Ki [5]: 15 nM
- Ki [6]: 30 µM
B1: Luffa cylindrica trypsin inhibitor, LCTI-III (peptide)
peptide: RICPRILMECSSDSDCLAECICLENGFCG
notes: Chemically synthesised

- Ki [5]: 1 nM
- Ki [7]: 2000 nM
B2: native infestin-4, fusion protein with thioredoxin I E. coli containing polyhistidine clusters (other)
chain: EVRNPCACFRNYVPVCGSDGKTYGNPCMLNCAAQTKVPGLKLVHEGRCQRSNVEQF
notes: It says MutB differs from it at positions 9, 12 and 14 only; also called Inf4; not shown: thioredoxin I of E. coli, fusion partner; polyhistidine clusters

- Ki [5]: 1 nM
B3: infestin-4 mutant MutB, fusion protein with thioredoxin I E. coli containing polyhistidine clusters (other, not shown: large carriers; small tags and cut ends)
chain: B2 chain with F9T, Y12F, P14A
modifications: cysteine pairing not given here; also: fusion with thioredoxin I and polyhistidine clusters, not given here
